Measurements from the supplement of paper PMC9112550, “Optimization of the antimicrobial peptide Bac7 by deep mutational scanning” (BMC Biology, 2022).

System: Escherichia coli TOP10
Experiment: shrunken log2 fold change of peptide-encoding DNA abundance (4.5 h post-induction vs induction); higher = less antimicrobial activity (less host growth inhibition)
Conditions: time post-induction: 4.5 h; library: site-saturation at positions 5, 18, 19, 20
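Note: peptides expressed intracellularly from a pBAD plasmid library in pooled LB shake-flask culture, induced with 0.3% L-arabinose, DNA abundance read by NGS, three biological replicates, DESeq2 with apeglm shrinkage.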

Sequence | shrunken log2 fold change
RRIRKRPPRLPRPRPRPPYEPRP | 0.0908
RRIRGRPPRLPRPRPRPNMRPRP | 1.08
RRIRWRPPRLPRPRPRPTRFPRP | 0.286
RRIRLRPPRLPRPRPRPHCTPRP | -0.533
RRIRCRPPRLPRPRPRPWVWPRP | -0.00389
RRIRKRPPRLPRPRPRPSELPRP | 0.141
RRIRGRPPRLPRPRPRPECYPRP | 0.25
RRIRVRPPRLPRPRPRPHIVPRP | -0.165
RRIRTRPPRLPRPRPRPQGIPRP | 0.0112
RRIRIRPPRLPRPRPRPGGLPRP | -0.16
RRIRRRPPRLPRPRPRPDTNPRP | 1.31
RRIRMRPPRLPRPRPRPYVSPRP | 0.013
RRIRPRPPRLPRPRPRPMMWPRP | 0.0433
RRIRTRPPRLPRPRPRPSHHPRP | -0.646
RRIRPRPPRLPRPRPRPHWDPRP | -0.208
RRIRSRPPRLPRPRPRPYKDPRP | -0.716
RRIRWRPPRLPRPRPRPEKWPRP | 0.0948
RRIRRRPPRLPRPRPRPNWMPRP | 0.0739
RRIRPRPPRLPRPRPRPTSVPRP | 0.181
RRIRKRPPRLPRPRPRPYRAPRP | -0.117
RRIRVRPPRLPRPRPRPVSIPRP | 0.126
RRIRARPPRLPRPRPRPKNEPRP | 0.215
RRIRRRPPRLPRPRPRPRYDPRP | 0.0442
RRIRMRPPRLPRPRPRPPNCPRP | 0.0335
RRIRGRPPRLPRPRPRPCHWPRP | -0.175

Sequence | shrunken log2 fold change
RRIRQRPPRLPRPRPRPWTQPRP | 0.0496
RRIRTRPPRLPRPRPRPMMQPRP | -0.0796
RRIRTRPPRLPRPRPRPAFNPRP | -0.121
RRIRNRPPRLPRPRPRPCIEPRP | -0.117
RRIRSRPPRLPRPRPRPYTHPRP | -1.3
RRIRQRPPRLPRPRPRPPCYPRP | -0.0902
RRIRSRPPRLPRPRPRPTDNPRP | -0.249
RRIRSRPPRLPRPRPRPVRDPRP | 0.369
RRIRIRPPRLPRPRPRPKEPPRP | 0.0805
RRIRYRPPRLPRPRPRPQMCPRP | -0.0257
RRIRMRPPRLPRPRPRPDNSPRP | -0.071
RRIRVRPPRLPRPRPRPYYFPRP | -0.777
RRIRDRPPRLPRPRPRPMHGPRP | -0.123
RRIRARPPRLPRPRPRPYKNPRP | -0.524
RRIRCRPPRLPRPRPRPDLRPRP | -0.035
RRIRCRPPRLPRPRPRPSQNPRP | -0.141
RRIRHRPPRLPRPRPRPCWQPRP | -0.065
RRIRDRPPRLPRPRPRPGTPPRP | 0.223
RRIRERPPRLPRPRPRPRVFPRP | 0.138
RRIRNRPPRLPRPRPRPFSHPRP | -0.015
RRIRARPPRLPRPRPRPHVSPRP | 0.0459
RRIRNRPPRLPRPRPRPGFPPRP | -0.00149
RRIRFRPPRLPRPRPRPIIQPRP | -0.786
RRIRGRPPRLPRPRPRPDVEPRP | 1.27
RRIRDRPPRLPRPRPRPQEMPRP | -0.01

Sequence | shrunken log2 fold change
RRIRGRPPRLPRPRPRPDCDPRP | 0.841
RRIRIRPPRLPRPRPRPFVNPRP | -0.488
RRIRLRPPRLPRPRPRPWFKPRP | -0.86
RRIRQRPPRLPRPRPRPCFKPRP | -0.407
RRIRARPPRLPRPRPRPGPTPRP | 0.574
RRIRHRPPRLPRPRPRPQQDPRP | -0.147
RRIRERPPRLPRPRPRPIFLPRP | -0.288
RRIRIRPPRLPRPRPRPFNYPRP | -0.149
RRIRTRPPRLPRPRPRPKPGPRP | 0.299
RRIRMRPPRLPRPRPRPRTWPRP | 1.11
RRIRKRPPRLPRPRPRPTRLPRP | 0.537
RRIRGRPPRLPRPRPRPYWMPRP | -0.34
RRIRVRPPRLPRPRPRPILAPRP | -0.224
RRIRMRPPRLPRPRPRPPPFPRP | 1.15
RRIRSRPPRLPRPRPRPWLAPRP | 0.166
RRIRNRPPRLPRPRPRPEANPRP | -0.0185
RRIRWRPPRLPRPRPRPFETPRP | 0.0441
RRIRLRPPRLPRPRPRPTTCPRP | 0.0385
RRIRMRPPRLPRPRPRPIDLPRP | -0.00804
RRIRQRPPRLPRPRPRPFLLPRP | -0.165
RRIRKRPPRLPRPRPRPQGKPRP | 0.0114
RRIRPRPPRLPRPRPRPWQLPRP | 0.224
RRIRWRPPRLPRPRPRPSCCPRP | 0.174
RRIRQRPPRLPRPRPRPHDSPRP | -0.0135
RRIRGRPPRLPRPRPRPKDGPRP | 0.798

Sequence | shrunken log2 fold change
RRIRNRPPRLPRPRPRPLNNPRP | -0.478
RRIRRRPPRLPRPRPRPQIIPRP | -0.0755
RRIRTRPPRLPRPRPRPEAEPRP | 0.0438
RRIRDRPPRLPRPRPRPEHHPRP | 0.155
RRIRWRPPRLPRPRPRPEYCPRP | 1.23
RRIRVRPPRLPRPRPRPKRFPRP | -0.0543
RRIRYRPPRLPRPRPRPNYCPRP | -1.16
RRIRDRPPRLPRPRPRPFRVPRP | -0.101
RRIRVRPPRLPRPRPRPFNGPRP | -0.15
RRIRVRPPRLPRPRPRPAKWPRP | 0.153
RRIRCRPPRLPRPRPRPFLFPRP | -0.291
RRIRVRPPRLPRPRPRPCPVPRP | -0.0687
RRIRDRPPRLPRPRPRPQCTPRP | 0.191
RRIRPRPPRLPRPRPRPVKDPRP | -0.0309
RRIRCRPPRLPRPRPRPLHEPRP | -0.23
RRIRGRPPRLPRPRPRPMESPRP | 0.295
RRIRRRPPRLPRPRPRPEEHPRP | 0.107
RRIRFRPPRLPRPRPRPDVHPRP | -0.179
RRIRSRPPRLPRPRPRPIQHPRP | -0.204
RRIRSRPPRLPRPRPRPKEDPRP | 1.6
RRIRTRPPRLPRPRPRPFRKPRP | -0.0396
RRIRWRPPRLPRPRPRPEFIPRP | 0.186
RRIRPRPPRLPRPRPRPFWDPRP | -0.465
RRIRCRPPRLPRPRPRPAMVPRP | 0.204
RRIRVRPPRLPRPRPRPLWYPRP | -0.263

Sequence | shrunken log2 fold change
RRIRLRPPRLPRPRPRPTKPPRP | 0.0884
RRIRQRPPRLPRPRPRPDVKPRP | -0.0135
RRIRSRPPRLPRPRPRPFAWPRP | -0.0248
RRIRSRPPRLPRPRPRPTYNPRP | -0.765
RRIRQRPPRLPRPRPRPRAVPRP | 2.78
RRIRRRPPRLPRPRPRPFVAPRP | 0.354
RRIRRRPPRLPRPRPRPLNDPRP | 0.0468
RRIRDRPPRLPRPRPRPENGPRP | 0.0234
RRIRERPPRLPRPRPRPPSTPRP | -0.136
RRIRYRPPRLPRPRPRPSRLPRP | -0.114
RRIRGRPPRLPRPRPRPGVQPRP | 0.739
RRIRYRPPRLPRPRPRPVWDPRP | -0.0448
RRIRIRPPRLPRPRPRPHFHPRP | -0.424
RRIRPRPPRLPRPRPRPHGHPRP | 0.0412
RRIRIRPPRLPRPRPRPITWPRP | -0.551
RRIRARPPRLPRPRPRPFMVPRP | -0.235
RRIRIRPPRLPRPRPRPAMEPRP | 0.0199
RRIRWRPPRLPRPRPRPQWDPRP | -0.0065
RRIRWRPPRLPRPRPRPKCIPRP | -0.217
RRIRHRPPRLPRPRPRPKQYPRP | -0.439
RRIRGRPPRLPRPRPRPYILPRP | -0.614
RRIRNRPPRLPRPRPRPEYTPRP | -0.0431
RRIRFRPPRLPRPRPRPFIVPRP | -0.772
RRIRARPPRLPRPRPRPETYPRP | 0.0388
RRIRVRPPRLPRPRPRPKCLPRP | 0.127
